Laboratory results taken from publication PMC8569552, “Basolateral protein Scribble binds phosphatase PP1 to establish a signaling network maintaining apicobasal polarity” (The Journal of Biological Chemistry, 2021).

Molecular target: the molecule itself
Assay: native gel or EMSA; BN-PAGE (Native-PAGE Novex Bis-Tris) of 1% Triton X-100 lysates of DLD20-2 cells expressing the tagged protein, no cross-linking; blot probed for GFP

B1: sLUR-517GFP (domain or fragment, human, UniProt Q14160 1-517, looked up)
chain: MLKCIPLWRCNRHVESVDKRHCSLQAVPEEIYRYSRSLEELLLDANQLRELPKPFFRLLNLRKLGLSDNEIQRLPPEVANFMQLVELDVSRNDIPEIPESIKFCKALEIADFSGNPLSRLPDGFTQLRSLAHLALNDVSLQALPGDVGNLANLVTLELRENLLKSLPASLSFLVKLEQLDLGGNDLEVLPDTLGALPNLRELWLDRNQLSALPPELGNLRRLVCLDVSENRLEELPAELGGLVLLTDLLLSQNLLRRLPDGIGQLKQLSILKVDQNRLCEVTEAIGDCENLSELILTENLLMALPRSLGKLTKLTNLNVDRNHLEALPPEIGGCVALSVLSLRDNRLAVLPPELAHTTELHVLDVAGNRLQSLPFALTHLNLKALWLAENQAQPMLRFQTEDDARTGEKVLTCYLLPQQPPPSLEDAGQQGSLSETWSDAPPSRVSVIQFLEAPIGDEDAEEAAAEKRGLQRRATPHPSELKVMKRSIEGRRSEACPCQPDSGSPLPAEEEKRLSAE
notes: Scribble, LAP unique region (sLUR): LRR domain of 17 LRRs, LAPSDa and LAPSDb; the discussion calls the tag mGFP; also called full-length sLUR; source: DLD20-2 cells (LAP protein-deficient DLD1), transfected clones, in lysate
- stoichiometry N: 2
